Test results reported in patent publication US20100093980A1 (Biogen, published 2010).
Substitutions are numbered along the chain they refer to. One block for each binder: values may come before it.

Target: T1, purified α4β1 VLA4 integrin (UniProt P13612 34-1032; P05556 21-798)
T1 construct: Purified VLA4 coated on the plate at 1 ug/ml; also called α4β1 integrin
Assay: ELISA, Fab on plate-coated purified VLA4, goat anti-human IgG HRP detection
Method: In this assay, 1 ug/ml of purified VLA4 (in 50 mM NaHCO₃ buffer (pH 9.2) containing 10 ug/ml BSA) was coated on a 96-well (100 ul/well) Corning Easy-wash plate and incubated overnight at 4° C. Following incubation, the plate was blocked with 150 ul/well of blocking buffer (50 mM Tris-HCl pH7.5, 150 mM NaCl and 2% Dry Milk) for 60 minutes at room temperature. The plated was then washed four times with TBS Washing buffer (50 mM Tris-HCl pH 7.5, 150 mM NaCl, 0.05% Tween-20). Dilutions of each HP1/2 Fab to be tested were prepared in binding buffer (TBS buffer containing 2% Dry Milk) and 100 ul of each dilution was added to the designated wells (100 ul of TBS assay buffer was used as blank control). The plate was then incubated for 60 minutes at room temperature, and then washed four times with TBS Washing buffer. The detection antibody (goat anti-human IgG HRP conjugate) was added at 100 ul/well and the plated was again incubated at room temperature for 60 minutes and washed four times with TBS Washing buffer beforeadding 100 ul/well HRP Substrate buffer and incubating another 30-60 minutes. To stop the reaction, 100 ul of 1 NH2SO4 was added to each well. The plate was read in a Molecular Devices ELISA plate reader at […], and the data was analyzed using Softmax software and EC50 values calculated by GraphPad Prism 4. The EC50 values observed for the test Fab fragments with VH and VL domains are tabulated in […]

T1 sequence (P13612 34-1032, form in doubt, chain 1 of 2): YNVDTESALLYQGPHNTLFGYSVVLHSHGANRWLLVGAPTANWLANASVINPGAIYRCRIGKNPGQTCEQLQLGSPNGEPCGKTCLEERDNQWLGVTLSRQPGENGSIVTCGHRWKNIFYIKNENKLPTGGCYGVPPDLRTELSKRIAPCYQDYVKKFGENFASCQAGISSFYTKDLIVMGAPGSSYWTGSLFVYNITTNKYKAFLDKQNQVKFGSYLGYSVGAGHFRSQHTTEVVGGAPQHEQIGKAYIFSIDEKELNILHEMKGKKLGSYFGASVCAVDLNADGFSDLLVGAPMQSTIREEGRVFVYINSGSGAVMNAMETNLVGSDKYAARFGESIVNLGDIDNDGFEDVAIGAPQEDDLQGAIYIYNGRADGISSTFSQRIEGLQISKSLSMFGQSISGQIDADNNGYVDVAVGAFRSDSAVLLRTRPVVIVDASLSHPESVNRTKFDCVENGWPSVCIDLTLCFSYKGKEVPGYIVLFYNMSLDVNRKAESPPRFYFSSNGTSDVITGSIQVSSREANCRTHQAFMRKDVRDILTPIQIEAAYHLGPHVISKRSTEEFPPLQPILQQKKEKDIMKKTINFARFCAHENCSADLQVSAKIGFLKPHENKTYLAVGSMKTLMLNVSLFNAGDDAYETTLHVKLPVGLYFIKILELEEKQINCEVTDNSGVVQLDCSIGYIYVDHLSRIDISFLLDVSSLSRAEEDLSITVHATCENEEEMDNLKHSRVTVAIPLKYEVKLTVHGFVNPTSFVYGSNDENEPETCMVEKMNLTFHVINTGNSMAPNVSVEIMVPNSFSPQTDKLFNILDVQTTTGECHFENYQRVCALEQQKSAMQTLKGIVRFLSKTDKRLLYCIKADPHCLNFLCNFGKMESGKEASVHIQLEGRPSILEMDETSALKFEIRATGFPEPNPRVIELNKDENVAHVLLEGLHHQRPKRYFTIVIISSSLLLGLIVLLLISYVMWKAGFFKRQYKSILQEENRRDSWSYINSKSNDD
T1 sequence (P05556 21-798, form in doubt, chain 2 of 2): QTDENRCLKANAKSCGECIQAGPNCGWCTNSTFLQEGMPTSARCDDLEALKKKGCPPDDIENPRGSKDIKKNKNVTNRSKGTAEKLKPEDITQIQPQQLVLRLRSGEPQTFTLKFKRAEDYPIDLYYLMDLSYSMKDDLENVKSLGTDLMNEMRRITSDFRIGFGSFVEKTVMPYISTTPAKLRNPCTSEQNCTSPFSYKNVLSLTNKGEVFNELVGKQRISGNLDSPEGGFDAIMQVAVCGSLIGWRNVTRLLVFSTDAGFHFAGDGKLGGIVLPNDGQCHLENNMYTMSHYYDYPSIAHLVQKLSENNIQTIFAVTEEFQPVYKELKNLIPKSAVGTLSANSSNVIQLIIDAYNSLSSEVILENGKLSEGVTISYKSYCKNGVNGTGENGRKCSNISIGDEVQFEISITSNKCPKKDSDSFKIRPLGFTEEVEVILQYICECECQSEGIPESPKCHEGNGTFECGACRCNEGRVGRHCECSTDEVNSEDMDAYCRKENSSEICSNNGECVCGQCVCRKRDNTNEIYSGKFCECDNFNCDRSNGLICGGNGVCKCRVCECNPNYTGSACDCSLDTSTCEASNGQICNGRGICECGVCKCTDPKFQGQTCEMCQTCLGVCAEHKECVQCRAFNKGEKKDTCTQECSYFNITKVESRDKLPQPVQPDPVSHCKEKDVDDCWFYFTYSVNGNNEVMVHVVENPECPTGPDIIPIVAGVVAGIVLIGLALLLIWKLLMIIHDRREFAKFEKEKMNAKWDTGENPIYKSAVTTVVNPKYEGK

EC50: 0.052 nM
B1: Chimeric HP1/2 Fab (murine VH and VL domains) (Fab, V domains shown)
VH: EVQLQQSGAELVKPGASVKLSCTASGFNIKDTYMHWVKQRPEQGLEWIGRIDPASGDTKYDPKFQVKATITADTSSNTAWLQLSSLTSEDTAVYYCADGMWVSTGYALDFWGQGTTVTVSS
VL: SIVMTQTPKFLLVSAGDRVTITCKASQSVTNDVAWYQQKPGQSPKLLIYYASNRYTGVPDRFTGSGYGTDFTFTISTVQAEDLAVYFCQQDYSSPYTFGGGTKLEIK
notes: Fab fragment; Constant parts (CH1, CL) are not specified; detection was with goat anti-human IgG HRP conjugate; also called chimeric Fab

EC50: 0.066 nM
B2: Humanized HP1/2 Fab V24A_T32V (Fab, V domains shown)
VH: EVQLVQSGAEVKKPGATVKISCKASGFNIKDVYMHWVQQAPGKGLEWMGRIDPASGDTKYDPKFQVRVTITADTSTDTAYMELSSLRSEDTAVYYCATGMWVSTGYALDFWGQGTLVTVSS
VL: DIVMTQSPDSLAVSLGERATINCKASQSVTNDVAWYQQKPGQPPKLLIYYASNRYTGVPDRFSGSGSGTDFTLTISSLQAEDVAVYYCQQDYSSPYTFGQGTKVEIK
notes: Fab fragment; Constant parts are not specified

EC50: 1.1 nM
B3: HP1/2 Fab, straight CDR graft (VH CDR graft paired with VL CDR graft) (Fab, V domains shown)
VH: B2 VH with A24V, V32T
VL: B2 VL
notes: as for B2

EC50: 0.14 nM
B4: Humanized HP1/2 Fab F27Y_T32V_M96L (VH SEQ ID NO: 25) (Fab, V domains shown)
VH: B2 VH with A24V, F27K, M100L
VL: B2 VL
notes: as for B2

EC50: 0.032 nM
B5: Humanized HP1/2 Fab V24S_F27Y_T32V (Fab, V domains shown)
VH: B2 VH with A24S, F27Y
VL: B2 VL
notes: as for B2

EC50: 0.13 nM
B6: Humanized HP1/2 Fab V24F_T32V (Fab, V domains shown)
VH: B2 VH with A24F
VL: B2 VL
notes: as for B2
